Measured values published in IntAct's records for PubMed 31515488.

B1: PiggyBac transposable element-derived protein 1 (Homo sapiens), Q96JS3 (parent)
chain: MYEALPGPAPENEDGLVKVKEEDPTWEQVCNSQEGSSHTQEICRLRFRHFCYQEAHGPQEALAQLRELCHQWLRPEMHTKEQIMELLVLEQFLTILPKELQPCVKTYPLESGEEAVTVLENLETGSGDTGQQASVYIQGQDMHPMVAEYQGVSLECQSLQLLPGITTLKCEPPQRPQGNPQEVSGPVPHGSAHLQEKNPRDKAVVPVFNPVRSQTLVKTEEETAQAVAAEKWSHLSLTRRNLCGNSAQETVMSLSPMTEEIVTKDRLFKAKQETSEEMEQSGEASGKPNRECAPQIPCSTPIATERTVAHLNTLKDRHPGDLWARMHISSLEYAAGDITRKGRKKDKARVSELLQGLSFSGDSDVEKDNEPEIQPAQKKLKVSCFPEKSWTKRDIKPNFPSWSALDSGLLNLKSEKLNPVELFELFFDDETFNLIVNETNNYASQKNVSLEVTVQEMRCVFGVLLLSGFMRHPRREMYWEVSDTDQNLVRDAIRRDRFELIFSNLHFADNGHLDQKDKFTKLRPLIKQMNKNFLLYAPLEEYYCFDKSMCECFDSDQFLNGKPIRIGYKIWCGTTTQGYLVWFEPYQEESTMKVDEDPDLGLGGNLVMNFADVLLERGQYPYHLCFDSFFTSVKLLSALKKKGVRATGTIRENRTEKCPLMNVEHMKKMKRGYFDFRIEENNEIILCRWYGDGIISLCSNAVGIEPVNEVSCCDADNEEIPQISQPSIVKVYDECKEGVAKMDQIISKYRVRIRSKKWYSILVSYMIDVAMNNAWQLHRACNPGASLDPLDFRRFVAHFYLEHNAHLSD
B2: Centrosomal protein of 55 kDa (Homo sapiens), Q53EZ4 (parent)
chain: MSSRSTKDLIKSKWGSKPSNSKSETTLEKLKGEIAHLKTSVDEITSGKGKLTDKERHRLLEKIRVLEAEKEKNAYQLTEKDKEIQRLRDQLKARYSTTTLLEQLEETTREGERREQVLKALSEEKDVLKQQLSAATSRIAELESKTNTLRLSQTVAPNCFNSSINNIHEMEIQLKDALEKNQQWLVYDQQREVYVKGLLAKIFELEKKTETAAHSLPQQTKKPESEGYLQEEKQKCYNDLLASAKKDLEVERQTITQLSFELSEFRRKYEETQKEVHNLNQLLYSQRRADVQHLEDDRHKTEKIQKLREENDIARGKLEEEKKRSEELLSQVQFLYTSLLKQQEEQTRVALLEQQMQACTLDFENEKLDRQHVQHQLHVILKELRKARNQITQLESLKQLHEFAITEPLVTFQGETENREKVAASPKSPTAALNESLVECPKCNIQYPATEHRDLLVHVEYCSK
partner: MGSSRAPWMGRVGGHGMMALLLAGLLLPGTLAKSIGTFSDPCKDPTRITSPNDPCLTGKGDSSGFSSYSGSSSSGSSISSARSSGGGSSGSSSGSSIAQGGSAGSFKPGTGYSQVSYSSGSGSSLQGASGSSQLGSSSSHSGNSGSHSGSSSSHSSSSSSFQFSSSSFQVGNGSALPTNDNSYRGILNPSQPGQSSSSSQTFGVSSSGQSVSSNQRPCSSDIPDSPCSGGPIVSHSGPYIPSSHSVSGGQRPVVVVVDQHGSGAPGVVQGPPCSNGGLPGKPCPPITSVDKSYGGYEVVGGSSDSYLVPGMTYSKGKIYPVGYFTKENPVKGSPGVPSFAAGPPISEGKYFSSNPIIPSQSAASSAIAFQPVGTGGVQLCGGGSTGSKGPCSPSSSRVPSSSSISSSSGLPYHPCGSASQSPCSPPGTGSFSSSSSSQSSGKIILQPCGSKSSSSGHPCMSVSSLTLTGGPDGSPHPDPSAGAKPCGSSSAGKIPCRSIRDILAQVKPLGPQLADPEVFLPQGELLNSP
B3: Centrosomal protein of 55 kDa (Homo sapiens), Q53EZ4 (parent)
chain: B2 chain
partner: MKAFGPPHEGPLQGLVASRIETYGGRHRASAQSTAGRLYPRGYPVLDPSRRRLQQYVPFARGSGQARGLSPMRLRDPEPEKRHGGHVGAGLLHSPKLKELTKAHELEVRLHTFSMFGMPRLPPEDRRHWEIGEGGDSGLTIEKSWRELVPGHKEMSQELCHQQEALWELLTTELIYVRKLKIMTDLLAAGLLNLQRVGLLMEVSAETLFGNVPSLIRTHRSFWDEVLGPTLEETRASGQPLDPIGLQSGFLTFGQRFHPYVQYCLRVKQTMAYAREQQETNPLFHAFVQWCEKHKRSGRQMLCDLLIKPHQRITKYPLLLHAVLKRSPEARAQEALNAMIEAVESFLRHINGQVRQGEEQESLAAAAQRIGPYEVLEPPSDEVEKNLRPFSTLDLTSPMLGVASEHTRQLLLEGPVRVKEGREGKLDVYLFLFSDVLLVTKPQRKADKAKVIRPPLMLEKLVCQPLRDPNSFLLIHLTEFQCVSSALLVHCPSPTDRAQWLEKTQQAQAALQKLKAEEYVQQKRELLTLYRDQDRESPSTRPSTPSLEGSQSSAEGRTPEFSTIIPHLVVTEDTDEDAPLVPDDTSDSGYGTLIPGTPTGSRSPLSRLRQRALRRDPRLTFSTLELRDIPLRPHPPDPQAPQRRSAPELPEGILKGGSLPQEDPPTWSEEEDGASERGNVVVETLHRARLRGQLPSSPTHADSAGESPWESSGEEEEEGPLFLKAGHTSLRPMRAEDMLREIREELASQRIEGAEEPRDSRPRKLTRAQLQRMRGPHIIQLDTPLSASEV
B4: Melanoma-associated antigen 4 (Homo sapiens), P43358 (parent)
chain: MSSEQKSQHCKPEEGVEAQEEALGLVGAQAPTTEEQEAAVSSSSPLVPGTLEEVPAAESAGPPQSPQGASALPTTISFTCWRQPNEGSSSQEEEGPSTSPDAESLFREALSNKVDELAHFLLRKYRAKELVTKAEMLERVIKNYKRCFPVIFGKASESLKMIFGIDVKEVDPASNTYTLVTCLGLSYDGLLGNNQIFPKTGLLIIVLGTIAMEGDSASEEEIWEELGVMGVYDGREHTVYGEPRKLLTQDWVQENYLEYRQVPGSNPARYEFLWGPRALAETSYVKVLEHVVRVNARVRIAYPSLREAALLEEEEGV
partner: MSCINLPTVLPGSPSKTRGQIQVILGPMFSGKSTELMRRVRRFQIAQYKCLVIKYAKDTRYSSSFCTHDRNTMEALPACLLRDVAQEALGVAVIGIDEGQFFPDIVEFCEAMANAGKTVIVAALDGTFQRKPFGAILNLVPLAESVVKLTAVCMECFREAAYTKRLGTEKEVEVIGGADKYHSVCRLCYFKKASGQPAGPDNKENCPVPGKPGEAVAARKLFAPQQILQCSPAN
B5: Cyclin-dependent kinase 4 inhibitor D (Homo sapiens), P55273 (parent)
chain: MLLEEVRAGDRLSGAAARGDVQEVRRLLHRELVHPDALNRFGKTALQVMMFGSTAIALELLKQGASPNVQDTSGTSPVHDAARTGFLDTLKVLVEHGADVNVPDGTGALPIHLAVQEGHTAVVSFLAAESDLHRRDARGLTPLELALQRGAQDLVDILQGHMVAPL

Variants of: B1
Settings: with traf2_human TRAF2, Q12933

| Variant | effect of a mutation on the interaction |
| --- | --- |
| Q248E | disrupting interaction strength |

Variants of: B1
Settings: with zsc22_human ZSCAN22, P10073

| Variant | effect of a mutation on the interaction |
| --- | --- |
| Q248E | with no effect |

Variants of: B1
Settings: with zn446_human ZNF446, Q9NWS9

| Variant | effect of a mutation on the interaction |
| --- | --- |
| Q248E | with no effect |

Variants of: B2
Settings: with cdsn_human CDSN

| Variant | effect of a mutation on the interaction |
| --- | --- |
| H57Q | with no effect |
| C236R | with no effect |
| A244P | with no effect |
| R348K | with no effect |

Variants of: B3
Settings: with pkhg6_human PLEKHG6, Q3KR16

| Variant | effect of a mutation on the interaction |
| --- | --- |
| L59F | with no effect |

Variants of: B4
Settings: with kith_human TK1, P04183

| Variant | effect of a mutation on the interaction |
| --- | --- |
| S41F | with no effect |

Variants of: B5
Settings: with nr4a1_human NR4A1, P22736

| Variant | effect of a mutation on the interaction |
| --- | --- |
| P142S | disrupting interaction strength |

Variants of: B5
Settings: with nr4a2_human NR4A2, P43354

| Variant | effect of a mutation on the interaction |
| --- | --- |
| P142S | with no effect |

Variants of: B5
Settings: with cdk6_human CDK6, Q00534

| Variant | effect of a mutation on the interaction |
| --- | --- |
| P142S | with no effect |
